Test results taken from PMC3264736.

Biological target: Pitx2 homeodomain wild-type (UniProt Q99697 85-144)
Test: ITC

B1: TAATCC consensus DNA (dsDNA)
DNA 1: GCTCTAATCCCCG
DNA 2: CGGGGATTAGAGC
  Kd: 66 nM
